To fix the notation:
B1: DLC1 (parent)
chain: NDDSADYQHFLQDCVDGLFKEVKE
B2: TRIM29 (parent)
chain: FAEKGELRKSIFSESRKPTVSIME
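Note: lentivirally expressed fusions sorted by FACS into six bins by GFP to DsRed ratio, PSI derived from sequencing read proportions per bin multiplied by bin number.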

The variants in one data set derive from B1. Nature of the data set: protein stability index of a GFP-peptide fusion (GPS, HEK-293T) (PSI 1-6); higher = more stable. As to conditions: c terminus: a fixed tail appended.
Regarding NGDSADYQHFLQDCVDGLFKEVKE [D2G], the protein stability index was 4.54. Same read-out and setting: the same measure for NCDSADYQHFLQDCVDGLFKEVKE [D2C]: 2.14; for NVDSADYQHFLQDCVDGLFKEVKE [D2V]: 1.96; for NTDSADYQHFLQDCVDGLFKEVKE [D2T]: 2.65. With NYDSADYQHFLQDCVDGLFKEVKE [D2Y], the protein stability index worked out at 1.2.

Regarding NQDSADYQHFLQDCVDGLFKEVKE [D2Q], the protein stability index turned out to be 2.91. The same measure, in the same setting: the same measure for NFDSADYQHFLQDCVDGLFKEVKE [D2F]: 2.47.

The variants in another data set derive from B2. The description is as above. Conditions: c terminus: a fixed tail appended.
For the variant FAEKGELRKSIFSESRKPTVSIMK [E24K], the protein stability index is 1.76. FAEKGELRKSIFSESRKPTVSIMM [E24M]: the protein stability index is 2.73. In the case of FAEKGELRKSIFSESRKPTVSIMH [E24H], the protein stability index came out at 3.14. For the variant FAEKGELRKSIFSESRKPTVSIMS [E24S], the protein stability index was found to be 1.65. On the same count and under the same terms, the same measure for FAEKGELRKSIFSESRKPTVSIMW [E24W]: 2.17; for FAEKGELRKSIFSESRKPTVSIMF [E24F]: 2.22.

FAEKGELRKSIFSESRKPTVSIMD [E24D]: the protein stability index is 2.41.

For FAEKGELRKSIFSESRKPTVSIMY [E24Y], the protein stability index turned out to be 2.54. Same read-out and setting: with FAEKGELRKSIFSESRKPTVSIMN [E24N] the figure was 1.36; with FAEKGELRKSIFSESRKPTVSIMR [E24R], 1.3; with FAEKGELRKSIFSESRKPTVSIMP [E24P], 2.23. For FAEKGELRKSIFSESRKPTVSIMI [E24I], the protein stability index is 2.79. Same read-out and setting: with FAEKGELRKSIFSESRKPTVSIMG [E24G] the figure was 2.2; with FAEKGELRKSIFSESRKPTVSIMT [E24T], 1.88. On the same count and under the same terms, the same measure for FAEKGELRKSIFSESRKPTVSIMV [E24V]: 2.33; for FAEKGELRKSIFSESRKPTVSIMC [E24C]: 2.07; for FAEKGELRKSIFSESRKPTVSIML [E24L]: 2.98.

For the variant FAEKGELRKSIFSESRKPTVSIMA [E24A], the protein stability index turned out to be 2.12. In the case of FAEKGELRKSIFSESRKPTVSIMQ [E24Q], the protein stability index was determined as 1.95.

For the variant FAEKGELRKSIFSESRKPTVSMME [I22M], the protein stability index came out at 1.49. Same read-out and setting: with FAEKGELRKSIFSESRKPTVSHME [I22H] the figure was 3.02; with FAEKGELRKSIFSESRKPTVSGME [I22G], 1.85. Still for that read-out and setting: the same measure for FAEKGELRKSIFSESRKPTVSLME [I22L]: 2.17. The same measure, in the same setting: the same measure for FAEKGELRKSIFSESRKPTVSQME [I22Q]: 1.55.

Consider FAEKGELRKSIFSESRKPTVSTME [I22T], for which the protein stability index worked out at 2.04. Still for that read-out and setting: the same measure for FAEKGELRKSIFSESRKPTVSYME [I22Y]: 1.38; for FAEKGELRKSIFSESRKPTVSSME [I22S]: 1.78; for FAEKGELRKSIFSESRKPTVSEME [I22E]: 2.06. Still for that read-out and setting: with FAEKGELRKSIFSESRKPTVSVME [I22V] the figure was 1.86; with FAEKGELRKSIFSESRKPTVSNME [I22N], 1.74; with FAEKGELRKSIFSESRKPTVSPME [I22P], 2.48. For the variant FAEKGELRKSIFSESRKPTVSRME [I22R], the protein stability index came to 1.34. FAEKGELRKSIFSESRKPTVSKME [I22K]: the protein stability index came out at 2.31. Turning to FAEKGELRKSIFSESRKPTVSDME [I22D], the protein stability index was found to be 1.99. Same read-out and setting: the same measure for FAEKGELRKSIFSESRKPTVSFME [I22F]: 1.79; for FAEKGELRKSIFSESRKPTVSWME [I22W]: 1.67. Still for that read-out and setting: the same measure for FAEKGELRKSIFSESRKPTVSCME [I22C]: 2.68; for FAEKGELRKSIFSESRKPTVSAME [I22A]: 2; for FAEKGELRKSIFSESRKPTVCIME [S21C]: 1.49. As to FAEKGELRKSIFSESRKPTVQIME [S21Q], the protein stability index was found to be 3.18. The same measure, in the same setting: the same measure for FAEKGELRKSIFSESRKPTVNIME [S21N]: 2.11; for FAEKGELRKSIFSESRKPTVRIME [S21R]: 2.19; for FAEKGELRKSIFSESRKPTVAIME [S21A]: 2.12.

For FAEKGELRKSIFSESRKPTVPIME [S21P], the protein stability index stood at 1.47.

Regarding FAEKGELRKSIFSESRKPTVYIME [S21Y], the protein stability index was 2.15.

With FAEKGELRKSIFSESRKPTVEIME [S21E], the protein stability index turned out to be 1.76. On the same count and under the same terms, the same measure for FAEKGELRKSIFSESRKPTVKIME [S21K]: 2.7; for FAEKGELRKSIFSESRKPTVVIME [S21V]: 2.17. On the same count and under the same terms, the same measure for FAEKGELRKSIFSESRKPTVWIME [S21W]: 2.55; for FAEKGELRKSIFSESRKPTVLIME [S21L]: 2.05; for FAEKGELRKSIFSESRKPTVDIME [S21D]: 1.65. On the same count and under the same terms, the same measure for FAEKGELRKSIFSESRKPTVFIME [S21F]: 2.61.

As to FAEKGELRKSIFSESRKPTVGIME [S21G], the protein stability index was 1.95. On to FAEKGELRKSIFSESRKPTVMIME [S21M], for which the protein stability index worked out at 2.61. With FAEKGELRKSIFSESRKPTVTIME [S21T], the protein stability index was determined as 1.76. FAEKGELRKSIFSESRKPTVHIME [S21H]: the protein stability index was 1.31.

For FAEKGELRKSIFSESRKPTVIIME [S21I], the protein stability index turned out to be 3.09. With FAEKGELRKSIFSESRKPTQSIME [V20Q], the protein stability index turned out to be 2.2. With FAEKGELRKSIFSESRKPTWSIME [V20W], the protein stability index was 2.58. In the case of FAEKGELRKSIFSESRKPTKSIME [V20K], the protein stability index was found to be 2.08. In the case of FAEKGELRKSIFSESRKPTLSIME [V20L], the protein stability index is 1.23.

Regarding FAEKGELRKSIFSESRKPTYSIME [V20Y], the protein stability index is 1.67.

As to FAEKGELRKSIFSESRKPTRSIME [V20R], the protein stability index is 1.68. On the same count and under the same terms, with FAEKGELRKSIFSESRKPTMSIME [V20M] the figure was 1.92; with FAEKGELRKSIFSESRKPTSSIME [V20S], 2.34. For FAEKGELRKSIFSESRKPTPSIME [V20P], the protein stability index is 1.89. The same measure, in the same setting: the same measure for FAEKGELRKSIFSESRKPTNSIME [V20N]: 1.27; for FAEKGELRKSIFSESRKPTTSIME [V20T]: 1.77; for FAEKGELRKSIFSESRKPTVSINE [M23N]: 2.38. In the case of FAEKGELRKSIFSESRKPTVSILE [M23L], the protein stability index was determined as 1.71. For the variant FAEKGELRKSIFSESRKPTVSIGE [M23G], the protein stability index stood at 1.57. Same read-out and setting: with FAEKGELRKSIFSESRKPTVSITE [M23T] the figure was 2.22.

Take FAEKGELRKSIFSESRKPTVSIEE [M23E]: the protein stability index was determined as 1.56. For the variant FAEKGELRKSIFSESRKPTVSIVE [M23V], the protein stability index came out at 2.01. On the same count and under the same terms, with FAEKGELRKSIFSESRKPTVSIIE [M23I] the figure was 1.49. Take FAEKGELRKSIFSESRKPTVSIFE [M23F]: the protein stability index came to 1.6. For FAEKGELRKSIFSESRKPTVSIDE [M23D], the protein stability index turned out to be 1.92.

Take FAEKGELRKSIFSESRKPTVSIYE [M23Y]: the protein stability index worked out at 2.2. Consider FAEKGELRKSIFSESRKPTVSIQE [M23Q], for which the protein stability index is 2.47. Regarding FAEKGELRKSIFSESRKPTVSIHE [M23H], the protein stability index came to 2.56.

As for FAEKGELRKSIFSESRKPTVSIWE [M23W], the protein stability index came to 2.21. Turning to FAEKGELRKSIFSESRKPTVSIKE [M23K], the protein stability index came to 1.66. The same measure, in the same setting: with FAEKGELRKSIFSESRKPTVSICE [M23C] the figure was 2.16; with FAEKGELRKSIFSESRKPTVSIPE [M23P], 1.84.

For the variant FAEKGELRKSIFSESRKPTVSIAE [M23A], the protein stability index was 1.47. The same measure, in the same setting: the same measure for FAEKGELRKSIFSESRKPTVSIRE [M23R]: 2.22. Take FAEKGELRKSIFSESRKPTVSISE [M23S]: the protein stability index was 1.58.

The values are drawn from the supplement of paper PMC10567573.
